Entries after “also recorded” stand apart in the source; their conditions may differ.
B1: G34: human anti-HMG1 antibody; VL/VH aa SEQ ID NO: 50/52 (antibody, listed as Homo sapiens, V domains shown)
VH: EVQLLESGGGLVQPGGSLRLSCAASGFTFSHYMMGWVRQAPGKGLEWVSRISPSGGGTVYADSVKGRFTISRDNSKNTLYLQMNSLRAEDTAVYYCARGGNWNYISYYYYYLDVWGKGTTVTVSS
VL: AQDIQMTQSPSSLSASVGDRVAITCRASQSIDTYLNWYQQKPGKAPKLLIYAASKLEDGVPSRFSGSGTGTDFTLTIRSLQPEDFASYFCQQSYSSPGITFGPGTKVEIK
B2: G16: human anti-HMG1 antibody; VL/VH aa SEQ ID NO: 42/44 (antibody, listed as Homo sapiens, V domains shown)
VH: EVQLLESGGGLVQPGGSLRLSCAASGFTFSWYKMTWVRQAPGKGLEWVSSISPSGGFTSYADSVKGRFTISRDNSKNTLYLQMNSLRAEDTAVYYCARDLDIRHAFDIWGQGTMVTVSS
VL: AQDIQMTQSPGTLSLSPGESGTLSCRASESVSSRHFAWYQQKPGQAPRLLIYGASSRPTGIPDRFSGSGSGTDFTLTLSRLEPEDFAVYFCQYYGSSPYTFGGGTKVEMK
B3: S14: human anti-HMG1 antibody; VL/VH aa SEQ ID NO: 66/68 (antibody, listed as Homo sapiens, V domains shown)
VH: EVQLLESGGGLVQPGGSLRLSCAASGFTFSWYETGWVRQAPGKGLEWVSGISPSGGYTQYADSVKGRFTISRDNSKNTLYLQMNSLRAEDTAVYYCARSGVGATKIFDYWGQGTLVTVSS
VL: AQDIQMTQSPSSLSASVGDRVTIICRANERINTYLNWYQQKPGKAPKLLISGTSSLESGVPSRFSGSGSGTEFTLSISSLQPEDFASYYCQQSYSSPYTFGQGTNLEIR
B4: G12: human anti-HMG1 antibody; VL/VH aa SEQ ID NO: 38/40 (antibody, listed as Homo sapiens, V domains shown)
VH: EVQLLESGGGLVQPGGSLRLSCAASGFTFSYYMMTWVRQAPGKGLEWVSSISPSGGYTIYADSAKGRFTISRDNSKNTLYLQMNSLRAEDTAVYYCARALSTGSFWDYWGQGTLVTVSS
VL: AQDIQMTQSPGTLSLSPGERATLSCRASESLTSTYVAWYQHKPGQAPRLLIHGGSTRATGIPVRFSGSGSGTDFTLTIATLEPEDFAVYYCQQYGSSPYTFGQGTKLEIK
B5: G35: human anti-HMG1 antibody; VL/VH aa SEQ ID NO: 54/56 (antibody, listed as Homo sapiens, V domains shown)
VH: EVQLLESGGGLVQPGGSLRLSCAASGFTFSWYKMVWVRQAPGKGLEWVSSIVPSGGITIYADSVKGRFTISRDNSKNTLYLQMNSLRAEDTAVYYCARVQQWLGRPYFDYWGQGTLVTVSS
VL: AQDIQMTQSPLSLPVTPGEPASISCRSSQSLLHGNGYNYLDWYLQRPGQSPQLLIYSGSNRASGVPDRFSGSGSGTDFTLKISRVEAEDVGVYYCMQSLQSRTFGQGTKVEIK

How the values were obtained:
[1] = test system: HMG1 (recombinant, native; immobilized, soluble); test: Direct and sandwich (capture) ELISA comparing forms of HMG1; type: binding; conditions: two ELISA formats, rHMG1
Protocol: Direct ELISA (immobilized HMG1): Individual wells of a 96-well immunoplate (EIA/RIA plate, High binding, Costar) were coated with HMGB-1 at 5 μg/ml in PBS at 4° C. overnight. The plate was then blocked with 4% milk powder dissolved in PBS at 37° C. for 1 hour. The blocking solution was removed and replaced with human anti-HMG1 antibodies at various concentrations (see FIG. 4A). The plate was then washed (ELX-405 Plate washer, BIO-TEK) and secondary antibody (anti-human IgG-HRP, PIERCE) was added at a final concentration of 1:125,000 at 37° C. for 1 hour. HRP activity was detected with Sureblue HRP substrate (KPL). Plates were read at 450 nm using a Kinetic Microplate Reader (Molecular Devices).
Sandwich ELISA (soluble HMG1): Immunoplates (EIA/RIA plate, High binding, Costar) were coated with anti human IgG Fc at 10 μg/ml in PBS (pH 7.2) and incubated at 4° C. overnight. The coating reagent was removed and the plates were rinsed briefly with PBS. The plates were then blocked with 4% milk for 1 hour at 37° C. and rinsed with PBS. The anti-HMG1 antibodies were diluted in 4% milk. For serial dilutions, the antibodies were used at a starting concentration of 20 μg/ml. The diluted anti-HMG1 antibodies were then added into plate and incubated for 1 hr at 37° C. The plate was then washed 10 times with PBST (PBS/0.1% tween 20) and incubate with antigen (HMGB1, 2 μg/ml; or 0.7 μg/ml for native HMGB1) in 4% milk and incubated at 37° C. for 1 h. The plate was then wash 10 times and incubated with mouse anti-HMGB1, 1 μg/ml in 4% milk at 37° C. for 1 h. The plate was washed 10 times and incubated with anti-mouse IgG-HRP at 1:1000 at 37° C. for 1 h. The plate was then washed and developed. HRP activity was detected with Sureblue HRP substrate (KPL). Plates were read at 450 nm using a Kinetic Microplate Reader (Molecular Devices).

[2] = molecular target: T1, HMG2 (Bos taurus, UniProt P40673); test: Binding to HMG1 vs. HMG2 ELISA; design: species or system calf; conditions: immobilized antigen
T1 construct: from tissue; host or cells: calf thymus (as read from the sentence)
T1 sequence (P40673 1-209): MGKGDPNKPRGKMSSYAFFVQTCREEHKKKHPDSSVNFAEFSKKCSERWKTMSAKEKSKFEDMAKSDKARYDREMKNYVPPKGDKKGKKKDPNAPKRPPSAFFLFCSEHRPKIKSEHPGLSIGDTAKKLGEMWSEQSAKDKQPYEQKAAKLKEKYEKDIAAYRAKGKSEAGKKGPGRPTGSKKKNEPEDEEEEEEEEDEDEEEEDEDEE
Protocol: Binding to HMG1 vs. HMG2: Ultra high-binding ELISA plates (ThermoLab systems, #3855) were coated with either 5 ug/mL of Calf thymus HMGB1 or HMBG2 diluted in 10 mM Phosphate buffered saline (PBS), pH 7.2 and incubate overnight at 4 degrees. The plates were washed twice with Ca and Mg free PBS and 100 microliters of anti-HMGB1 antibody diluted in 10 mM PBS, pH 7.2+1% bovine serum albumin (BSA) to a final concentration of 10 ug/mL was added to each well and the plates were incubated 1 hour at room temperature. The wells were washed three times with 100 μl of PBS, pH 7.2. HRP labeled goat-anti-human IgG Kappa-chain (KPL, #14-10-10) and goat-anti-human IgG Lambda-chain (KPL, #14-10-11) were diluted in 10 mM PBS+1% BSA 1:1000 and 100 μl were added to each well and incubated for 1 hour at room temperature. The wells were then washed three times with 100 μl of PBS, pH 7.2. OPD substrate (Pierce chemical company, #34006) was prepared following the manufacturers instructions and 100 μl of prepared substrate was added to each well and the plates incubated at room temperature in the dark for 20-30 minutes. The reaction was stopped with the addition of 100 μl of 2M H2SO4, and the plates read on a plate reader at a wavelength of 490 nm.

[3] = molecular target: T2, recombinant HMG1 binding to RAGE-Fc (Homo sapiens, UniProt P09429); test: HMG1 binding to RAGE-Ig by ELISA; conditions: at the concentrations tested
T2 construct: made in house; host or cells: E. coli (HMG1)
T2 sequence (P09429 1-215): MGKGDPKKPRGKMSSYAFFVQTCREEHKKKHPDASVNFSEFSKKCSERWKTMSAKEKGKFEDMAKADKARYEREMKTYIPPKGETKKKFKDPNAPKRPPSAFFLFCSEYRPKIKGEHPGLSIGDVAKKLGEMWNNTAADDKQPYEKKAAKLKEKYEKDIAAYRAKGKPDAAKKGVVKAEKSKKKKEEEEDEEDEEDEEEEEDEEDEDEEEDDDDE
Protocol: HMG1 binding to RAGE-Ig by ELISA: 50 μl/well of RAGE-Fc fusion protein at 5 μg/ml in PBS was added to each well of an ELISA plate and incubated overnight at 4° C. The plate was then blocked with 200 μl of 5% milk at 37° C. for 1 hr and washed 3× with PBS/Tween. 50 μl/well of diluted HMGB1 solution. For dose curves, HMGB1 concentrations started at 4 ug/ml in PBS. For antibody blocking the HMGB1 was preincubated in another plate with human anti-HMG1 antibodies or buffer, then transferred to the RAGE-coated plate. The plates were then incubated at room temperature for 2 hours and washed 3×. To detect any HMG1 bound to the immobilized RAGE-Fc a mixture of biotinylated mouse anti-HMG1 mAbs (10D4, 4H11, 3E10 and 5C12) each at 1 ug/ml, total Ab: 4 ug/ml, were added to each well and the plate was incubated for 1 hour at room temperature. The plate was then washed and Strepavidin-HPR was added to each well and incubated 15 min. The plate was then washed 3× and blotted dry. 100 μl of TMB developing agent was added and the plate read at 650 nm. Values were calculated as percent of inhibition with HMG1 alone equal to 0% inhibition. The data in FIG. 9 and summarized in Table 1 represent the average of two separate experiments.

[4] = Isoelectric focusing gel electrophoresis; type: physicochemical
Protocol: Isoelectric Focusing Gel Electrophoresis: Isoelectric points were determined using a Pharmacia Biotech Multiphor 2 electrophoresis system with a multi temp 3 refrigerated bath recirculation unit and an EPS 3501 XL power supply. Pre-cast ampholine gels (Amersham Biosciences, pI range 2.5-10) were loaded with 5 μg of protein. Broad range pI marker standards (Amersham, pI range 3-10, 8 μL) were used to determine relative pI for the Mabs. Electrophoresis was performed at 1500 V, 50 mA for 105 minutes. The gel was fixed using a Sigma fixing solution (5×) diluted with purified water to 1×. Staining was performed overnight at room temperature using Simply Blue stain (Invitrogen). Destaining was carried out with a solution that consisted of 25% ethanol, 8% acetic acid and 67% purified water. Isoelectric points were determined using a Bio-Rad Densitometer relative to calibration curves of the standards.

[5] = Differential scanning calorimetry; type: physicochemical; design: unit: °C; conditions: in °C (unit assumed)
Protocol: Differential Scanning Calorimetry: Thermal melting temperatures (Tm) were measured with a VP-DSC (MicroCal, LLC) using a scan rate of 1.0° C./min and a temperature range of 25-120° C. A filter period of 8 seconds was used along with a 5 minute pre-scan thermostating. Samples were prepared by dialysis into 25 mM Histidine-HCl, pH 6 using Pierce dialysis cups (3.5 kD). Average Mab concentrations were 50 μg/mL as determined by A280. Melting temperatures were determined following manufacturer procedures using Origin software supplied with the system. Briefly, multiple baselines were run with buffer in both the sample and reference cell to establish thermal equilibrium. After the baseline was subtracted from the sample thermogram, the data were concentration normalized and fitted using the deconvolution function.

Molecule | binding to immobilized versus soluble HMG1 [1] | relative binding to HMG1 and HMG2 [2] | block of recombinant HMG1 binding to RAGE [3] | PI [4] | Tm [5]
B1 | bind better to soluble rHMG1 | specific for HMG1 | do not at the concentrations tested | ~8.7 | ~75
B2 | bound slightly better to immobilized rHMG1 |  | did not inhibit RAGE binding; also recorded: do not at the concentrations tested |  | 
B3 |  | specific for HMG1 | did not inhibit RAGE binding; also recorded: do not at the concentrations tested | 8.62 | 70.7
B4 | little difference in binding to immobilized or soluble HMG1 | specific for HMG1 | did not inhibit RAGE binding; also recorded: do not at the concentrations tested | 8.6 | 78.8
B5 |  | specific for HMG1 |  | 8.61 | 69

Source: patent US20080311122A1, “Antagonists of Hmgb1 and/or Rage and Methods of Use Thereof” (Medimmune, LLC, priority 2005, published 2008)
